B1: mAb anti huPD-L1 29E.2A3 (Biolegend) (antibody, from another filing, V domains shown)
VH: EVQLQQSGPELVKPGASVKMSCKASGYTFTSYVMHWVKQKPGQGLEWIGYVNPFNDGTKYNEMFKGKATLTSDKSSSTAYMELSSLTSEDSAVYYCARQAWGYPWGQGTLVTVSA
VL: DIVLTQSPASLAVSLGQRATISCRATESVEYYGTSLVQWYQQKPGQPPKLLIYAASSVDSGVPARFSGSGSGTDFSLTIHPVEEDDIAMYFCQQSRRVPYTFGGGTKLEIK
B2: AVA04-251 BH (designed binder, from a related filing)
chain: MIPRGLSEAKPATPEIQEIVDKVKPQLEEKTNETYGKLEAVQYKTQVLAREGRQDWVLSTNYYIKVRAGDNKYMHLKVFNGPWVPFPHQQLADRVLTGYQVDKNKDDELTGFAEAAAKEAAAKEAAAKEAAAKEAAAKEAAAKMIPRGLSEAKPATPEIQEIVDKVKPQLEEKTNETYGKLEAVQYKTQVLAREGRQDWVLSTNYYIKVRAGDNKYMHLKVFNGPWVPFPHQQLADRVLTGYQVDKNKDDELTGFHHHHHH

Assays:
[1] = biological target: huPD-L1-Fc (R&D Systems) (human) (UniProt Q9NZQ7); assay: competition ELISA: hu PD-1-Fc coated, huPD-L1-Fc preincubated with the antibody
Chain of huPD-L1-Fc (R&D Systems) (human) (Q9NZQ7 19-239 limits assumed): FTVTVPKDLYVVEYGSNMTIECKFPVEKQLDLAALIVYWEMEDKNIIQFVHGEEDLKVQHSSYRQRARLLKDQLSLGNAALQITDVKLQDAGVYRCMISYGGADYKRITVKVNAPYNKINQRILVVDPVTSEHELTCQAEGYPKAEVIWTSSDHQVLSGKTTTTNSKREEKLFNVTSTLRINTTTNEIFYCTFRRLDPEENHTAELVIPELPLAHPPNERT

[2] = biological target: huPD-L1-Fc (R&D Systems) (human) (UniProt Q9NZQ7); assay: competition ELISA: hu CD80-Fc coated, 1.6 nM huPD-L1-Fc preincubated with the antibody
[3] = biological target: huPD-L1-Fc (R&D Systems) (human) (UniProt Q9NZQ7); assay: Biacore, ligand rhPD-L1-Fc, Affimer as analyte

Row | IC50 [1] [nM] | IC50 [2] [nM] | koff [3] [s⁻¹] | kon [3] [M⁻¹ s⁻¹] | Binder
1 | 0.18 | 0.31 | – | – | B1
2 | – | – | 0.00129 | 752000 | B2

From patent publication US20210163599A1
